B1: B7-H6: tunicamycin (protein)
parent chain: MTWRAAASTCAALLILLWALTTEGDLKVEMMAGGTQITPLNDNVTIFCNIFYSQPLNITSMGITWFWKSLTFDKEVKVFEFFGDHQEAFRPGAIVSPWRLKSGDASLRLPGIQLEEAGEYRCEVVVTPLKAQGTVQLEVVASPASRLLLDQVGMKENEDKYMCESSGFYPEAINITWEKQTQKFPHPIEISEDVITGPTIKNMDGTFNVTSCLKLNSSQEDPGTVYQCVVRHASLHTPLRSNFTLTAARHSLSETEKTDNFSIHWWPISFIGVGLVLLIVLIPWKKICNKSSSAYTPLKCILKHWNSFDTQTLKKEHLIFFCTRAWPSYQLQDGEAWPPEGSVNINTIQQLDVFCRQEGKWSEVPYVQAFFALRDNPDLCQCCRIDPALLTVTSGKSIDDNSTKSEKQTPREHSDAVPDAPILPVSPIWEPPPATTSTTPVLSSQPPTLLLPLQ
B2: B7-H6: N208Q (protein)
parent chain: B1 parent chain
B3: B7-H6: N43Q (protein)
parent chain: B1 parent chain

Legend:
rhNKp30-his protein = rhNKp30-his protein (UniProt O14931); test: flow cytometry on cells; conditions: 293T cells stably expressing B7-H6, stained with his-tagged NKp30; parent: est. 1.0; read off a plot
CHX chase, WB, U87 = conditions: glycan lost; control: DMSO
CHX chase, WB, 293T = conditions: glycan lost; control: DMSO
[1] = WB of TCA-precipitated supernatant, HCT-116; conditions: glycan lost; control: wild type
[2] = surface B7-H6 flow cytometry, HEK293T; conditions: glycan lost; control: wild type
[3] = surface B7-H6 flow cytometry, HCT-116; conditions: glycan lost; control: wild type
[4] = CHX chase, WB, stable 293T; conditions: glycan lost; control: wild type
[5] = WB of TCA-precipitated supernatant, HEK293T; conditions: glycan lost; control: wild type

Row | Molecule | localisation_or_trafficking [2] | localisation_or_trafficking [3] | degradation_or_half_life, half_life [4] | further results
1 | B7-H6, wild type, stably expressed on B7-H6 knockout 293T cells (from UniProt Q68D85) N411Q | – | – | – | ratio to parent (rhNKp30-his protein): 0.94
2 | B1 | – | – | – | degradation_or_half_life, half_life (CHX chase, WB, U87): decreases, 12.83 vs 27.14; degradation_or_half_life, half_life (CHX chase, WB, 293T): decreases, 17.36 vs 47.42
3 | B2 | decreases | decreases | decreases, 15 vs about 52 | other: shedding of soluble B7-H6 [1]: increases; other: shedding of soluble B7-H6 [5]: increases
4 | B3 | decreases | decreases | decreases, 5 vs about 52 | –
